Measurements as given in patent US20230265179A1 (TWIST BIOSCIENCE, published 2023).
Numbering of substitutions follows the chain as printed.

T1: IL1RL2 over-expressed on Expi293 cells (UniProt Q9HB29 20-575, limits assumed)
T1 construct: whole, on cells; Target of the flow cytometry assay; MFI ratio is over-expressing cells over parent cells
T1 sequence (looked up): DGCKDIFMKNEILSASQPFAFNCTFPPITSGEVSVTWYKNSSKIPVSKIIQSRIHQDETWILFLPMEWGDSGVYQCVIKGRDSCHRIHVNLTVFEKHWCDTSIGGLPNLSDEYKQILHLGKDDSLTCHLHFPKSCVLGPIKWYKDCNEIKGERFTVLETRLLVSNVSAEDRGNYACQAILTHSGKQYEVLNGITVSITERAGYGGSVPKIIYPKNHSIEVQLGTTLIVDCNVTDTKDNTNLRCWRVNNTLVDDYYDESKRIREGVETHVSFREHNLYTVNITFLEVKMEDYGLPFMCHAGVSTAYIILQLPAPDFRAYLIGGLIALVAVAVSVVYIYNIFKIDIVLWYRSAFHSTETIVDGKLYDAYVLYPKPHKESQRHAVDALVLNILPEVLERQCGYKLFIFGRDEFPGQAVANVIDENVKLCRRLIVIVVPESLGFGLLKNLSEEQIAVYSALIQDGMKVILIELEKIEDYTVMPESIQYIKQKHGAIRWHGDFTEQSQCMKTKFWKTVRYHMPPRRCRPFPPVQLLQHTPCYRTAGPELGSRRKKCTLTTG

T2: CD40L (UniProt P29965 1-261, limits assumed)
T2 construct: whole, on cells; also called cytokine over-expressing Expi293 cells (CD40L)
T2 sequence (looked up): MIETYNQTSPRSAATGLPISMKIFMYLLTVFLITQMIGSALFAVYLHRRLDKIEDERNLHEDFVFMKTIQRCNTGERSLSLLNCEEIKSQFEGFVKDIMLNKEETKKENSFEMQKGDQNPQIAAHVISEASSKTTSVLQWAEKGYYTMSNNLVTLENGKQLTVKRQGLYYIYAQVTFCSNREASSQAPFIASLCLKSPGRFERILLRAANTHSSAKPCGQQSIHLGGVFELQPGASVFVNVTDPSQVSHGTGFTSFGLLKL

B1: IL1RL2-284 (antibody, V domains shown)
VH: EVQLLESGGGLVQPGGSLRLSCAASGFTFTSHAMSWVRQAPGKGLEWVSGISGSGANTYYADSVKGRFTISRDNSKNTLYLQMNSLRAEDTAVYYCARDGIVVVPAANHSYYYYYGMDVWGQGTLVTVSS
VL: DIQMTQSPSSLSASVGDRVTITCRASQSISVHLNWYQQKPGKAPKLLIYIASNLQSGVPSRFSGSGSGTDFTLTISSLQPEDFATYYCQQTYTTPYTFGGGTKVEIK
notes: IgG2
B2: IL1RL2-293 (antibody, V domains shown)
VH: EVQLLESGGGLVQPGGSLRLSCAASGFTISNYAMSWVRQAPGKGLEWVSGISGSGSSTFYADSVKGRFTISRDNSKNTLYLQMNSLRAEDTAVYYCAKPDSGQWWGVDQWGQGTLVTVSS
VL: B1 VL with S30G, V31N, H32Y, L33V, I50A, Q55E, S56D, T91S, T93N, Y96L
notes: IgG2
B3: IL1RL2-296 (antibody, V domains shown)
VH: EVQLLESGGGLVQPGGSLRLSCAASGFIFSNFAMSWVRQAPGKGLEWVSGISGSGSSTNYADSVKGRFTISRDNSKNTLYLQMNSLRAEDTAVYYCARGFWSGYYGMDVWGQGTLVTVSS
VL: B1 VL with Q27R, V31T, H32Y, I50A, N53S, L54S, T93A, Y96W
notes: IgG2
B4: IL1RL2-185 (antibody, V domains shown)
VH: EVQLLESGGGLVQPGGSLRLSCAASGFTFDKYLMSWVRQAPGKGLEWVSAISGRGDNTYYADSVKGRFTISRDNSKNTLYLQMNSLRAEDTAVYYCARGGDTYFDYFDYWGQGTLVTVSS
VL: DIQMTQSPSSLSASVGDRVTITCRASQSIRRFLNWYQQKPGKAPKLLIYQASSLQSGVPSRFSGSGSGTDFTLTISSLQPEDFATYYCQQSHSSPLTFGQGTKVEIK
notes: IgG2
B5: IL1RL2-297 (antibody, V domains shown)
VH: EVQLLESGGGLVQPGGSLRLSCAASGFTFRSHAMSWVRQAPGKGLEWVSALSGSGGRTYYADSVKGRFTISRDNSKNTLYLQMNSLRAEDTAVYYCASSGAGVSDYWGQGTLVTVSS
VL: B4 VL with R30D, R31T, F32N, Q50A, S53N, S56H, H92S, S94I, Q100G
notes: IgG2
B6: IL1RL2-301 (antibody, V domains shown)
VH: EVQLLESGGGLVQPGGSLRLSCAASGFPLSSYAMSWVRQAPGKGLEWVSLISGSGVSTYYADSVKGRFTISRDNSKNTLYLQMNSLRAEDTAVYYCARGWGAAEEWGQGTLVTVSS
VL: B1 VL with I29V, V31Y, H32Y, I50G, S52V, T91S, Y92H, T94I, G100Q
notes: IgG2
B7: IL1RL2-289 (antibody, V domains shown)
VH: EVQLLESGGGLVQPGGSLRLSCAASGFTFTKYAMSWVRQAPGKGLEWVSGISGSGGYTYYADSVKGRFTISRDNSKNTLYLQMNSLRAEDTAVYYCARGAGSPDYWGQGTLVTVSS
VL: DIQMTQSPSSLSASVGDRVTITCRASQNIRSYLNWYQQKPGKAPKLLIYATSNLQRGVPSRFSGSGSGTDFTLTISSLQPEDFATYYCQQSYRAPYIFGGGTKVEIK
notes: IgG2
B8: IL1RL2-292 (antibody, V domains shown)
VH: EVQLLESGGGLVQPGGSLRLSCAASGLTFNNYAMSWVRQAPGKGLEWVSGISGSSGNTYYVDSVKGRFTISRDNSKNTLYLQMNSLRAEDTAVYYCARGPNHGMFDAWGQGTLVTVSS
VL: DIQMTQSPSSLSASVGDRVTITCRASQSIGYYLNWYQQKPGKAPKLLIYSATSLQSGVPSRFSGSGSGTDFTLTISSLQPEDFATYYCQHRGTFGGGTKVEIK
notes: IgG2
B9: IL1RL2-283 (antibody, V domains shown)
VH: EVQLLESGGGLVQPGGSLRLSCAASGFAFRSYAMSWVRQAPGKGLEWVSAITGSGTSTYYADSVKGRFTISRDNSKNTLYLQMNSLRAEDTAVYYCARDILWNYRVADYWGQGTLVTVSS
VL: DIQMTQSPSSLSASVGDRVTITCRASLSISRYLNWYQQKPGKAPKLLIYTASSLHSGVPSRFSGSGSGTDFTLTISSLQPEDFATYYCQQSYRTPPWTFGGGTKVEIK
notes: IgG2
B10: IL1RL2-290 (antibody, V domains shown)
VH: B9 VH with R105H
VL: B9 VL
notes: IgG2
B11: IL1RL2-295 (antibody, V domains shown)
VH: EVQLLESGGGLVQPGGSLRLSCAASGFSFTTYAMSWVRQAPGKGLEWVSGISGGGGSTYYADSVKGRFTISRDNSKNTLYLQMNSLRAEDTAVYYCAKLVLSNRGGVDYWGQGTLVTVSS
VL: DIQMTQSPSSLSASVGDRVTITCRASQSIRSHLNWYQQKPGKAPKLLIYRASTLQTGVPSRFSGSGSGTDFTLTISSLQPEDFATYYCQQSYSILPVTFGGGTKVEIK
notes: IgG2
B12: CD40L-211 (antibody, V domains shown)
VH: EVQLLESGGGLVQPGGSLRLSCAASGGYNFRDYMHWVRQAPGKGLEWVAEIRNKANNHATKYADSVKGRFTISRDNSKNTLYLQMNSLRAEDTAVYYCAKNLGQGFDYWGQGTLVTVSS
VL: DIQMTQSPSSLSASVGDRVTITCRASQTIGDYLNWYQQKPGKAPKLLIYETSKLASGVPSRFSGSGSGTDFTLTISSLQPEDFATYYCQQSYSTPTFGQGTKVEIK
B13: CD40L-205 (antibody, V domains shown)
VH: EVQLLESGGGLVQPGGSLRLSCAASGFDFSDYEMSWVRQAPGKGLEWVSSITSEGGSTYYADSVKGRFTISRDNSKNTLYLQMNSLRAEDTAVYYCAKPDVLFDYWGQGTLVTVSS
VL: DIQMTQSPSSLSASVGDRVTITCSGDNLGDKYVHWYQQKPGKAPKLLIYGKNIRPSGVPSRFSGSGSGTDFTLTISSLQPEDFANYYCQQTYSIPYTFGQGTKVEIK
B14: CD40L-217 (antibody, V domains shown)
VH: B13 VH with D28T, S30A, D31S, S35T, V101K, L102I
VL: DIQMTQSPSSLSASVGDRVTITCKASENVDTYVSWYQQKPGKAPKLLIYDDIDRPSGVPSRFSGSGSGTDFTLTISSLQPEDFATYYCQQSYSSPRTFGQGTKVEIK
B15: CD40L-214 (antibody, V domains shown)
VH: B13 VH with D28T, S30E, Y32T, S35D
VL: DIQMTQSPSSLSASVGDRVTITCSGDNLRGYYASWYQQKPGKAPKLLIYGENSRPSGVPSRFSGSGSGTDFTLTISSLQPEDFATYYCQQSYENPLTFGQGTKVEIK
B16: CD40L-208 (antibody, V domains shown)
VH: B13 VH with D28T, S30A, D31S, S35T, V101K, L102D
VL: DIQMTQSPSSLSASVGDRVTITCRASQTIGDYLNWYQQKPGKAPKLLIYLGSELQSGVPSRFSGSGSGTDFTLTINSLQPEDFATYYCQTWDTGESGVFGQGTKVEIK
B17: CD40L-219 (antibody, V domains shown)
VH: B13 VH with V101Q, L102F
VL: B1 VL with V31N, H32N, I50G, A51T, N53Y, L54R, Q55Y, T93D, Y96L, G100Q
B18: CD40L-216 (antibody, V domains shown)
VH: B13 VH with V101Q, L102F
VL: DIQMTQSPSSLSASVGDRVTITCRASQPIAYFLSWYQQKPGKAPKLLIYENNNRPSGVPSRFSGSGSGTDFTLTISSLQPEDFATYYCQPSFLYPYTFGQGTKVEIK
B19: CD40L-218 (antibody, V domains shown)
VH: B13 VH
VL: DIQMTQSPSSLSASVGDRVTITCRTSQSLSSYLHWYQQKPGKAPKLLIYQNDKRPSGVPSRFSGSGSGTDFTLTISSLQPEDFATYYCKQSYDLFTFGQGTKVEIK
B20: CD40L-207 (antibody, V domains shown)
VH: B13 VH with D28T, S30E, Y32T, S35D, V101K, L102D
VL: DIQMTQSPSSLSASVGDRVTITCRASQRISSFLNWYQQKPGKAPKLLIYDASNLQSGVPSRFSGSGSGTDFTLTISSLQPEDFATYYCQPSFYFPYAFGQGTKVEIK
B21: CD40L-210 (antibody, V domains shown)
VH: EVQLLESGGGLVQPGGSLRLSCAASGGYNFRDYMHWVRQAPGKGLEWVATISGGGINTYYPDSVKGRFTISRDNSKNTLYLQMNSLRAEDTAVYYCAKDLGQGFDYWGQGTLVTVSS
VL: DIQMTQSPSSLSASVGDRVTITCSGDKLGDKYTSWYQQKPGKVPKLLIYQNDKRPSGVPSRFSGSGSGTDFTLTISSLQPEDFATYYCQQNNNWPTTFGQGTKVEIK

Target: T1, IL1RL2 over-expressed on Expi293 cells
Test: flow cytometry, over-expressing Expi293 vs parent cells, 100 nM antibody;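 note: ratio is mean fluorescence intensity on over-expressing Expi293 cells divided by that measured on parental Expi293 cells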
Experimental: (§1) All incubations and washes were in buffer containing PBS+1% BSA. MFI Ratio is defined by the mean fluorescence intensity (MFI) of the cytokine over-expressing Expi293 cell over the Expi293 parent cell. […] EC50 was calculated in GraphPad Prism.

Row | Binder | 100 nM FACS (MFI Ratio)
1 | B1 | 8.71
2 | B2 | 10.2
3 | B3 | 19.9
4 | B4 | 205
5 | B5 | 7.44
6 | B6 | 11.7
7 | B7 | 5.31
8 | B8 | 11.7
9 | B9 | 3.98
10 | B10 | 8.4
11 | B11 | 3.07

Target: T2, CD40L
Test: flow cytometry, 100 nM IgG, CD40L over-expressing Expi293 cells over parent Expi293 cells
Experimental: as §1

Row | Binder | 100 nM FACS (MFI Ratio) [MFI ratio]
12 | B12 | 12.1
13 | B13 | 6.6
14 | B14 | 7.7
15 | B15 | 7.3
16 | B16 | 1.6
17 | B17 | 2.1
18 | B18 | 22.4
19 | B19 | 5.1
20 | B20 | 11.9
21 | B21 | 2.2
